# Measured values: publication PMC5811216, “Cleavage activates Dispatched for Sonic Hedgehog ligand release” (eLife, 2018)
# Where a chain is given by its changes, count along the chain named. Names may count otherwise.
# B1: DispHA, wild-type murine Dispatched 1 with a carboxyl-terminal HA tag (natural protein, mouse, UniProt Q3TDN0 1-1521, looked up)
# chain: MAVISGSDSVLLSNGSISTSTSNPSPLSPSDGDLPAQHLGPRETPRTKASPNGCLQLNGTVKSSFLPLDNQRTPQTPTQCCHPCPYHHPVSSHSNHQECHPEAGLAASPALASCRMQPHSEYSASLCPNHSPVYQAAHCLQPSPSFCLHHPWPDHFQHQPVRQHLTIIRPSRPFKFPRSYAALLADWPVVVLGMCTLLIVVCALVGVLVPELPDFSDPLLGFEPRGTTIGQRLVTWNNMMRNTGYKATLANYPYKYAEEQARSHRDDRWSDDHHERERREVDWNFQKDSFFCDVPSDGYSRVVFASAGGETLWNLPAIKSMCDVDNSRIRSHPQFSDLCQRTTAVSCCPSWTLGNYIAILNNRSSCQKIVERDVSHTLKLLRTCAKHYQNGTLGPDCWDKAARRKDQLKCTNVPRKCTKYNAVYQILHYLVDKDFMTPKTADYAVPALKYSMLFSPTEKGESMMNIYLDNFENWNSSDGITTVTGIEFGIKHSLFQDYLLMDTVYPAIAIAIVLLIMCVYTKSMFITLMTMFAIISSLIVSYFLYRVVFNFEFFPFMNLTALIILVGIGADDAFVLCDVWNYTKFDKPRAETSEAVSVTLQHAALSMFVTSFTTAAAFYANYVSNITAIRCFGVYAGTAILVNYVLMVTWLPAVIVLHERYLLNIFTCFRKPQPQAYDKSCWAVLCQKCRRVLFAVSEASRIFFEKVLPCIVIKFRYLWLIWFLALTVGGAYIVCVNPKMKLPSLELSEFQVFRSSHPFERYDAEFKKLFMFERVHHGEELHMPITVIWGVSPEDSGDPLNPKSKGELTLDSTFNIASPASQAWILHFCQKLRNQTFFHQTEQQDFTSCFIETFKQWMENQDCDEPALYPCCSHCSFPYKQEVFELCIKKAIMELDRSTGYHLNNKTPGPRFDINDTIRAVVLEFQSTFLFTLAYEKMQQFYKEVDSWISHELSSAPEGLSRGWFVSNLEFYDLQDSLSDGTLIAMGLSVAVAFSVMLLTTWNIIISLYAIVSIAGTIFVTVGSLVLLGWELNVLESVTISVAVGLSVDFAVHYGVAYRLAPDPDREGKVIFSLSRMGSAIAMAALTTFVAGAMMMPSTVLAYTQLGTFMMLVMCVSWAFATFFFQCLCRCLGPQGTCGQIPFPTKLQCSPFSHTLSARPGDRGPSKTHAASAYSVDARGQKSQLEHEFYELQPLASHSCTSSEKTTYEEPHTCSEFFNGQAKNLRMPVPAAYSSELTKSPSSEPGSALLQSCLEQDTVCHFSLNPRCNCRDAYTHLQYGLPEIHCQQMGDSLCHKCASTAGGFVQIQSSVAPLKASHQAAEGLLHPAQHMLPPGMQNSRPRNFFLHSVQHFQAQENLGRTSTHSTDERLPRTAELSPPPSDSRSTESFQRACCHPENNQRRLCKSRDPGDTEGSGGTKSKVSGLPNQTDKEEKQVEPSLLQTDETVNSEHLNHNESNFTFSHLPGEAGCRSCPNSPQSCRSIMRSKCGTEDCQTPNLEANVPAVPTHSDLSGESLLIKTL
# notes: Dispatched 1 (Disp), mouse; Disp1 cDNA from RIKEN introduced into Not1-Xba1 sites of pCDNA3; The lysate holds both Disp175 and the cleaved Disp145; On the native gel there was a ~480 kDa fraction (trimer) and ~750 kDa fractions; also called pCDNA3 Dispatched WT HA; pCDNA-DispHA; source: NIH3T3, transfected, in lysate (1% DDM); not shown: HA, C-terminal, kept
# B2: DispCSHA, cleavage site mutant (R279A, E280A) of murine Dispatched 1 with a carboxyl-terminal HA tag (natural protein, mouse, UniProt Q3TDN0 1-1521, looked up)
# chain: B1 chain with R279A, E280A
# notes: Dispatched 1 (Disp), mouse; Disp1 cDNA from RIKEN in pCDNA3; convertase motif disrupted by R279A, E280A; also called DispHA-CS; pCDNA-DispCSHA; source: NIH3T3, transfected, in lysate (1% DDM); not shown: HA, C-terminal, kept
# Molecular target: the molecule itself
# Test: native gel or EMSA; NIH3T3 lysates in NativePAGE sample buffer with 1% DDM, Benzonase treated; 4-20% NativePAGE Bis-Tris gel; anti-HA western blot
row,Protein,stoichiometry N
1,B1,3
2,B2,3
